Source: article PMC2781058 (Proceedings of the National Academy of Sciences of the …, 2009)

Target: T1, Med18 (S. cerevisiae, UniProt P32585 1-307)
T1 sequence (looked up): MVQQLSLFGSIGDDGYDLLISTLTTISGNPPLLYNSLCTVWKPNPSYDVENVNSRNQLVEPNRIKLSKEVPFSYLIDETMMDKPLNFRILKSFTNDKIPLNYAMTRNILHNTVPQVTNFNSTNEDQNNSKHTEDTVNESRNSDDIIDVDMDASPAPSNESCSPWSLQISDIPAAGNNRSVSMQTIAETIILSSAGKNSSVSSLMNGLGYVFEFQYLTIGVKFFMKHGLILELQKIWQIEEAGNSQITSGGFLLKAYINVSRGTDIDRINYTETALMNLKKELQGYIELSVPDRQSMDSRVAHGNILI
Test: co-IP

B1: Med8 (natural protein, S. cerevisiae, UniProt P38304 1-223, looked up)
chain: MSQSTASLVPEGNQGSLQEDVSFDFNGVPGQALDAVRMRLAQLTHSLRRIRDEMSKAELPQWYTLQSQLNVTLSQLVSVTSTLQHFQETLDSTVVYPLPKFPTTSHESLVTTLLRKKNIPEVDEWMKYVRETSGVTTALLKDEEIEKLLQQDREITNWARTTFRNEYGKHDFKNEESLSEEHASLLVRDSKPSKPFNVDDVLKFTFTGEKPIITGSTSTSSSN
Does B1 bind?
Result: binds

B2: Med20 (natural protein, S. cerevisiae, UniProt P34162 1-210, looked up)
chain: MGKSAVIFVERATPATLTELKDALSNSILSVRDPWSIDFRTYRCSIKNLPADVSKLMYSITFHHHGRQTVLIKDNSAMVTTAAAADIPPALVFNGSSTGVPESIDTILSSKLSNIWMQRQLIKGDAGETLILDGLTVRLVNLFSSTGFKGLLIELQADEAGEFETKIAGIEGHLAEIRAKEYKTSSDSLGPDTSNEICDLAYQYVRALEL
Does B2 bind?
Result: binds
